This is an account of results in patent publication US20130210888.

For data set [1], the system named is His-tagged full length (1-482aa) human CoREST.
For data set [2], the system named is CoREST del 2 (aa 293-482), His-tagged.

As to “histidine epitope-tagged LSD1 (HIS-LSD1), full length (1-851aa) human LSD1”, the “demethylation of nucleosomal substrates by LSD1 (Western blot with K4-H3 methylation-specific antibodies)” value in data set [1] is recorded as “addition of CoREST to the demethylation reaction restored the ability of recombinant LSD1 to demethylate nucleosomal substrates”. Moreover, the “stimulation of LSD1 demethylation activity (nucleosomal substrates)” value in data set [2] is reported as “sufficient to mediate stimulation of LSD1 demethylation activity to a level that is comparable to that of the wildtype CoREST”.
